Assay results published in patent US20100009390A1, “MUTANT ANTIBODIES WITH HIGH AFFINITY FOR EGFR” (THE REGENTS OF THE UNIVERSITY OF CALIFORNIA, priority 2008, published 2010).
Where a chain is given by its changes, count along the chain named. Several values for one entry are separate records, joined by “and”; a condition that tells them apart may be missing. Equal values may be shown once. Read-outs that look alike come from different tables or passages of the source.

Tests used:
[1] = biological target: T1, epidermal growth factor receptor (EGFR) on tumor cells (human, UniProt P00533 25-1210); test: flow cytometry, soluble monomeric scFv on A431 cells, 4 C, equilibrium
T1 construct: whole, on cells; also called EGFR on A431 cells; EGFR on MDAMB468 cells
Procedure: (§1) Cell binding was performed at 4° C. in FACS buffer in a volume calculated to ensure fivefold scFv excess and for a duration calculated to ensure that the reaction had reached equilibrium. After two washes with 200 μL of FACS buffer, cell-bound scFv was detected by the addition of 100 μl of 1 μg/ml biotinylated His probe (Santa Cruz Biotech.) and a 1:800 (v/v) dilution of streptavidin-PE (Biosource). After incubation at 4° C. for 30 min, the cells were washed twice and resuspended in PBS containing 4% (v/v) paraformaldehyde. Fluorescence was measured by flow cytometry in a FACS LSRII instrument (Becton Dickinson), and the median fluorescence intensity (MFI) values were fit to the equation: […]
(§2) To generate soluble scFv, the scFv genes were subcloned from pYD2 into the bacterial secretion vector pSYN1 (Schier et al (1995) Immunotechnology, 1:73-81), which directed the scFv to the bacterial periplasm using the pelB leader. The scFv was harvested from the bacterial periplasm and purified by immobilized metal-affinity chromatography as described (Id.). […] To ensure that the KD of monovalent scFv was determined, gel-filtration chromatography was performed as described (Schier and Marks (1996) Hum. Antibodies Hybridomas: 7: 97-105) to separate native monovalent scFv from dimeric scFv and aggregated scFv. scFv was used for cellular KD measurements immediately after gel-filtration.

[2] = biological target: T2, biotinylated recombinant EGFR-ECD (UniProt P00533 25-645, limits assumed, biotinylated with NHS-sulfo-LC-biotin); test: flow cytometry, yeast-displayed scFv, biotinylated EGFR-ECD, equilibrium
T2 construct: extracellular domain; The claims speak of human EGFR; also called biotin-EGFR ECD; biotinylated EGFR
Procedure: (§3) Generally, six to eight different concentrations of biotinylated EGFR were used to span a range of concentrations from ten times above to ten times below the KD. Incubation volumes, times and yeast numbers were chosen to ensure that the studies were done in at least fivefold antigen excess and that equilibrium had been achieved (Razai et al. (2005) J. Mol. Biol. 351: 158-169). For anti-EGFR scFv, […] in 50 μl were incubated with biotinylated EGFR-ECD for 1 h at room temperature. […] Only yeast displaying scFv (as determined by binding of SV5 mAb) were gated for affinity measurements.

[3] = biological target: T1, epidermal growth factor receptor (EGFR) …; test: flow cytometry, soluble scFv on A431 cells; this end is tied to P3/5 through the KD values of Table 2
Procedure: as §1, with “After” for “Cell binding was performed at 4° C. in FACS buffer in a volume calculated to ensure fivefold scFv excess and for a duration calculated to ensure that the reaction had reached equilibrium. After”
as §2

[4] = test system: EGFR-over-expressing MDAMB468 cells; test: Internalization/uptake of anti-EGFR immunoliposomes (microscopy, flow cytometry); assay type: cell-based, Human; conditions: 74 scFv/liposome; for endocytosis of ILs by fluorescence microscopy: MDAMB468
Procedure: (§4) scFv-mediated internalization of fluorescent immunoliposomes was analyzed and quantified by microscopy and flow cytometry. C10 scFv fragments were inserted into liposomes at ratios of 5, 10, 15, 30 and 60 μg scFv/μmol phospholipid (Mamot et al. (2003) Cancer Res. 63: 3154-3161). scFv densities of 16, 32, 48, 96 and 192 scFv/liposome were calculated on the basis of the molecular mass of scFv (26 kDa) and the approximate number of phospholipid molecules/liposome (80,000). The conjugation technology for scFv to Mal-PEG-DSPE is remarkably reproducible with an efficiency of 77.3(±3.1) % (range 75-82% over six batches) (Nellis et al. (2005) Biotechnol. Prog. 21: 205-220). […] For microscopy studies, 150,000 cells were incubated with 50 μM PL of untargeted and EGFR-targeted ILs labeled with DiIC18(3)-DS in a 12-well plate for 2 h at 37° C., followed by washing with PBS and further incubation at 37° C. for 2 h. The cells were then analyzed by using an inverted fluorescence microscope (Nikon Eclipse, TE300) with a 540/25 nm band-pass filter for excitation and a long-pass filter at 565 nm for emission. For quantitative uptake of immunoliposomes, 250,000 cells were incubated with EGFR-targeted ILs labeled with ADS645 in a six-well plate for 2 h at 37° C., washed with PBS, removed in trypsin solution and fluorescence quantified with a FACSAria instrument (Beckton Dickinson). To determine the effect of EGF competition on internalization of EGFR-targeted ILs, IL internalization was quantified as described above, except that 50 μM targeted ILs and cells were incubated with EGF concentrations ranging from 0.2-25 nM. ANOVA (analysis of variance) was used to analyze the statistical differences of the quantified uptake.

[5] = biological target: T3, MDAMB468 cells expressing EGFR (Homo sapiens, UniProt P00533); test: Immunoliposome binding affinity for cells expressing EGFR (flow cytometry); conditions: read-out: Apparent KD of immunoliposomes
T3 construct: Human breast cancer MDAMB468 cells expressing EGFR; endogenous in cells; host or cells: MDAMB468 breast carcinoma cells
Procedure: Human breast cancer MDAMB468 cells expressing EGFR were grown to 80-90% confluence in L15 medium supplemented with 10% FBS and harvested by trypsinization. ILs labeled with DiIC18(3)-DS were incubated overnight with 10^4 cells at concentrations of IL ranging from 0.31-2.5 nM. The concentration of IL was converted from the concentration of phospholipid on the basis of the approximate number of phospholipid molecules per liposome (80,000). Cell binding was performed at 4° C. in FACS buffer in adequate volume to ensure a fivefold excess of ILs and that the reaction had come to equilibrium. After two washes with 200 μl of FACS buffer, the amount of cell-bound ILs was quantified by flow cytometry in a FACS LSRII (Becton Dickinson). Data analysis was the same as for the measurement of scFv KD.

[6] = biological target: T4, A431 cells expressing EGFR (Homo sapiens, UniProt P00533); test: Measurement of scFv affinity for cells expressing EGFR (flow cytometry); assay type: binding; conditions: soluble monovalent scFv, 4° C.
T4 construct: Human squamous carcinoma A431 cells expressing EGFR; endogenous in cells; host or cells: A431 epidermal (squamous) carcinoma cells
Procedure: Human squamous carcinoma A431 cells expressing EGFR were grown to 80-90% confluence in RPMI medium supplemented with 10% fetal bovine serum and harvested by trypsinization. […] Cell binding was performed at 4° C. in FACS buffer in a volume calculated to ensure fivefold scFv excess and for a duration calculated to ensure that the reaction had reached equilibrium. After two washes with 200 μL of FACS buffer, cell-bound scFv was detected by the addition of 100 μl of 1 μg/ml biotinylated His probe (Santa Cruz Biotech.) and a 1:800 (v/v) dilution of streptavidin-PE (Biosource). After incubation at 4° C. for 30 min, the cells were washed twice and resuspended in PBS containing 4% (v/v) paraformaldehyde. Fluorescence was measured by flow cytometry in a FACS LSRII instrument (Becton Dickinson), and the median fluorescence intensity (MFI) values were fit to the equation:
MFI=MFImin+MFImax([Ab]/(KD+[Ab])
using the software program Kaleidagraph as described previously (Benedict et al. (1997) J. Immunol. Methods, 201: 223-231).

biotinylated EGFR-ECD = biological target: T5, biotinylated EGFR-ECD (Homo sapiens, UniProt P00533); test: Yeast-displayed scFv affinity for biotinylated EGFR-ECD by flow cytometry; assay type: binding; conditions: scFv displayed on yeast; EGFR-ECD only 10% immunoreactive; read-out: KD for biotin-EGFR ECD
T5 construct: Recombinant EGFR-ECD was expressed in HEK293 cells; biotin (chemical label, NHS-sulfo-LC-biotin on amines); made in house; host or cells: HEK293 cells
Procedure: as §3

MDAMB231 cells = test: Uptake of EGFR immunoliposomes into cells of lower EGFR density; assay type: cell-based, human; conditions: for IL uptake into MDAMB231 cells compared to A431 cells: all scFv densities studied, 480,000 EGFR/cell
Procedure: as §4
To determine the impact of receptor density on IL uptake, we measured the uptake of the different ILs into MDAMB231 cells which express 480,000 EGFR/cell as determined by flow cytometry using Quantum Simply Cellular anti-Human IgG beads (Bangs Laboratories Inc.). […] Uptake into MDAMB231 cells increased with increasing scFv density, reaching a plateau at an IL scFv density of 74 scFv/IL for P2/4 scFv and at 37 scFv/IL for 2224 scFv (FIG. 6C).

[7] = biological target: MDAMB468 cells expressing intact EGFR (Homo sapiens, UniProt P00533); conditions: EGF competition

B1: anti-EGFR scFv C10 (scFv, V domains shown)
VH: EVQLVQSGAEVKKPGSSVKVSCKASGGTFSSYAISWVRQAPGQGLEWMGGIIPIFGTANYAQKFQGRVTITADESTSTAYMELSSLRSEDTAVYYCAREEGPYCSSTSCYGAFDIWGQGTLVTVSS
VL: QSVLTQDPAVSVALGQTVKITCQGDSLRSYFASWYQQKPGQAPTLVMYARNDRPAGVPDRFSGSKSGTSASLAISGLQSEDEADYYCAAWDDSLNGYLFGAGTKLTVL
notes: Soluble monomeric scFv from pSYN1 in E. coli (Ni-NTA purified, detected with a His probe) in the assays on cells; also called C10 scFv; wild-type C10 scFv
[1]
  Kd: 264 nM

B2: C10 mutant scFv P2/2 (scFv, V domains shown)
VH: B1 VH with S35G, T57I, T78S
VL: B1 VL with S79P
notes: soluble His-tagged monomeric scFv on cells
[1]
  Kd: 17 nM
[2]
  Kd: 1800 nM

B3: C10 mutant scFv P3/5 (scFv, V domains shown)
VH: B1 VH with M48V, T69K, T76A
VL: B1 VL with F31L, M47T
notes: as for B2
[3]
  fold improvement in affinity compared to C10 scFv: 3 to 18 fold
[1]
  Kd: 88.2 nM

B4: combined C10 mutant scFv 2224 (scFv, V domains shown)
VH: B1 VH with S35G, T57I, T78S, G111A
VL: B1 VL with S79P
notes: P2/2 with the VH CDR3 Gly to Ala substitution of P2/4; soluble His-tagged monomeric scFv on cells
[2]
  Kd: 600 nM

B5: P2/4: C10 scFv mutant, Gly to Ala in VH CDR3 and Pro to Ala in VL FR1; SEQ ID NO:5 (protein)
scFv: B1 VH with G111A
modifications: Variable chain of single chain antibody.
[4]; IL 0.63 nM, flow cytometry
  IL uptake greater compared to C10: 24%
[4]
  endocytosis of ILs by fluorescence microscopy: endocytosed efficiently
[5]; 37 scFv/liposome
  Kd: 2.04 nM
[5]; 74 scFv/liposome
  Kd: 0.4 nM
[5]; 148 scFv/liposome
  Kd: 0.18 nM
[6]
  Kd: 15 nM and 15.4 nM
Biotinylated EGFR-ECD
  Kd: 1800 nM
MDAMB231 cells
  IL scFv density at which uptake into MDAMB231 cells reaches a plateau: 74 scFv/IL
  IL uptake into MDAMB231 cells compared to A431 cells: significantly less uptake

B6: P3/5: C10 scFv mutant from the P3 sort gate; SEQ ID NO:11 (protein)
scFv: B1 VH with M48V, T69K, T76A
modifications: Variable chain of single chain antibody.
[6]
  Kd: 88 nM

B7: 2224: combined mutant scFv: P2/2 with the VH CDR3 Gly to Ala mutation from P2/4; SEQ ID NO:17 and 24 (protein)
scFv: B1 VL with F31L, M47T
modifications: Variable chain of single chain antibody.
[4]; IL 0.63 nM, flow cytometry
  difference in IL uptake versus ILs from C10 or P2/4 scFv: no statistically significant difference
[4]
  endocytosis of ILs by fluorescence microscopy: endocytosed efficiently
MDAMB231 cells
  IL scFv density at which uptake into MDAMB231 cells reaches a plateau: 37 scFv/IL
  IL uptake into MDAMB231 cells compared to A431 cells: significantly less uptake
[7]
  IC50 of ILs less than the scFv IC50: 20 fold
